# Results reported in US20210032338A1.
# B1: VG9B2, chimera human IgG1 mAb (silent Fc) of mouse anti-human TCR Vγ9 clone B3 (antibody, V domains shown)
# VH: QGQMQQSGAELVKPGASVKLSCKTSGFTFSSNYISWLKQKPGQSLEWIAWIHGGTGGIGYNQKFTGKAQLTVDTSSTTAYMQFSSLTTEDSAIYYCARRGYGAWFAYWGQGTLVTVSA
# VL: DIQMTQSPASLSASVGETVTITCRASENIHNYLAWYQQKQGKSPQLLVYNAKTLADGVPSRFSGSGSGTQYSLKINSLQPEDFGNYYCQHFWSYPLTFGAGTKLELK
# Target: T Cell Receptor Gamma Variable 9 (TRGV9) on human γδ T cells (human) (UniProt Q99603)
# Assay: binding to γδ-enriched T cells, 1 h at 37 °C (panel γδ T-cell binding)
binder,measurement,value
B1,EC50,0.56 nM
